The supplement of paper PMC10567573

Assay: protein stability index of a GFP-peptide fusion (GPS, HEK-293T) (PSI 1-6); higher = more stable
[1] = parent: IOH13764_23, c terminus: a fixed tail appended
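Also: lentivirally expressed fusions sorted by FACS into six bins by GFP to DsRed ratio, PSI derived from sequencing read proportions per bin multiplied by bin number.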

B1: STEAP1 WT (peptide)
chain: LWKMKPRRNLEEDDYLHKDTGETS
With B1 the protein stability index (parent: IOH13052_3, c terminus: a fixed tail appended) was 4.46.

B2: LRRC45 WT (peptide)
chain: FQTRQEMTSMSAELKMRAIQAEER
In the case of B2, the protein stability index (parent: IOH13594_66, c terminus: a fixed tail appended) is reported as 4.

B3: TMEM40 WT (peptide)
chain: YGETDFHKQDGKAGLFSQEQYERN
For B3, the protein stability index (parent: IOH12831_5, c terminus: a fixed tail appended) was 4.04.

B4: CCND2 WT (peptide)
chain: YFKCVQKDIQPYMRRMVATWMLEV
Protein B4 has a protein stability index (parent: IOH13739_8, c terminus: a fixed tail appended) of 2.47.

B5: GLT8D2 WT (peptide)
chain: QEAKLLHWNGRHKPWDFPSVHNDL
For B5, the protein stability index (parent: IOH13397_52, c terminus: a fixed tail appended) was 2.77.

B6: ZNF193 WT (peptide)
chain: QKRYHCKECGKVFSQSAGLIQHQR
For B6, the protein stability index (parent: IOH12838_52, c terminus: a fixed tail appended) was 3.14.

B7: STX5 WT (peptide)
chain: RSEFTLMAKRIGKDLSNTFAKLEK
With B7 the protein stability index (parent: IOH14584_7, c terminus: a fixed tail appended) was 2.17.

B8: RAB11A WT (peptide)
chain: AVPTDEARAFAEKNGLSFIETSAL
For B8, the protein stability index [1] was 2.34.

B9: BEX1 WT (peptide)
chain: HSLRAVSTDPPHHDHHDEFCLMP
Work on B9 yielded a protein stability index (parent: IOH13216_18, c terminus: native) of 2.27.

B10: TLE6 WT (peptide)
chain: FWHDTLTEQLWRIFAGVHDEKAKP
In the case of B10, the protein stability index (parent: IOH13956_6, c terminus: a fixed tail appended) is reported as 1.76.

B11: FEM1B WT (peptide)
chain: TLAALLLNRSESDIRYLLGYVSQQ
B11 showed a protein stability index (parent: IOH13134_4, c terminus: a fixed tail appended) of 2.44.

B12: TFE3 WT (peptide)
chain: FPSDHLGDLGDPFHLGLEDILMEE
With B12 the protein stability index (parent: IOH14020_85, c terminus: a fixed tail appended) was 3.43.

B13: CSTF3 WT (peptide)
chain: YVPEKVKKAEKKLEENPYDLDAWS
Work on B13 yielded a protein stability index (parent: IOH12987_3, c terminus: a fixed tail appended) of 2.14.

B14: TRIM9 WT (peptide)
chain: CVQCKMPVCYQCLEEGKHSSHEVK
B14 showed a protein stability index (parent: IOH12704_41, c terminus: a fixed tail appended) of 3.89.

B15: STX5 WT (peptide)
chain: ESTIVELGSIFQQLAHMVKEQEET
Protein B15 has a protein stability index (parent: IOH14584_38, c terminus: a fixed tail appended) of 2.04.

B16: TCAP WT (peptide)
chain: YQRVLPLPIFTPAKMGATKEERED
For B16, the protein stability index (parent: IOH13813_15, c terminus: a fixed tail appended) was 2.04.

B17: KRT33B WT (peptide)
chain: YQSYFKTIEELQQKILCSKSENAR
Work on B17 yielded a protein stability index (parent: IOH13096_18, c terminus: a fixed tail appended) of 1.93.

B18: EFHC1 WT (peptide)
chain: NIYYYLEDDSMSVIEPVVENSGIL
B18 showed a protein stability index (parent: IOH14055_21, c terminus: a fixed tail appended) of 2.15.

B19: ANKRD40 WT (peptide)
chain: SLRENDFIEIELDRQELTYQELLR
B19 showed a protein stability index (parent: IOH13159_46, c terminus: a fixed tail appended) of 2.87.

B20: TRIM29 WT (peptide)
chain: RKCPVHGKTMELFCQTDQTCICYL
For B20, the protein stability index (parent: IOH13948_38, c terminus: a fixed tail appended) was 2.05.

B21: TBX6 WT (peptide)
chain: AFLELPHGSGGSGYPAAPPAVPFA
B21 gave a protein stability index (parent: IOH14639_65, c terminus: a fixed tail appended) of 2.31.

B22: ANKRD40 WT (peptide)
chain: VCCCELGVNPDQVEKIRKLPNTLL
Work on B22 yielded a protein stability index (parent: IOH13159_50, c terminus: a fixed tail appended) of 1.91.

B23: DYRK1B WT (peptide)
chain: ARKYFERLPGGGWTLRRTKELRKD
For B23, the protein stability index (parent: IOH14793_58, c terminus: a fixed tail appended) was 3.49.

B24: SNX8 WT (peptide)
chain: LHQETQLIHVYLPLTSHILRAFVN
With B24 the protein stability index (parent: IOH13259_67, c terminus: a fixed tail appended) was 2.4.

B25: GNB5 WT (peptide)
chain: YYPSGDAFASGSDDATCRLYDLRA
In the case of B25, the protein stability index (parent: IOH14466_42, c terminus: a fixed tail appended) is reported as 2.4.

B26: TRIM29 WT (peptide)
chain: FAEKGELRKSIFSESRKPTVSIME
Work on B26 yielded a protein stability index (parent: IOH13948_21, c terminus: a fixed tail appended) of 2.01.

B27: NR2F2 WT (peptide)
chain: NIPFFPDLQITDQVALLRLTWSEL
B27 showed a protein stability index (parent: IOH12813_39, c terminus: a fixed tail appended) of 2.29.

B28: CFHR2 WT (peptide)
chain: FVENGHSESSGQTHLEGDTVQIIC
B28 showed a protein stability index (parent: IOH13657_16, c terminus: a fixed tail appended) of 2.78.

B29: BEX1 WT (peptide)
chain: EENMERIGEEVRQLMEKLREKQLS
With B29 the protein stability index (parent: IOH13216_14, c terminus: a fixed tail appended) was 4.44.

B30: NR2F2 WT (peptide)
chain: VAHVESLQEKSQCALEEYVRSQYP
In the case of B30, the protein stability index (parent: IOH12813_56, c terminus: a fixed tail appended) is reported as 3.61.

B31: SNX8 WT (peptide)
chain: VVLKLFLSFSGSDVQNKLKESAQC
B31 showed a protein stability index (parent: IOH13259_29, c terminus: a fixed tail appended) of 2.49.

B32: ZC3H15 WT (peptide)
chain: ENLFTGEDLDELEEELNTLDLEE
B32 gave a protein stability index (parent: IOH14032_69, c terminus: native) of 4.42.

B33: SPDEF WT (peptide)
chain: FQELAGKELCAMSEEQFRQRSPLG
With B33 the protein stability index (parent: IOH12673_30, c terminus: a fixed tail appended) was 2.63.

B34: RAB11A WT (peptide)
chain: AVPTDEARAFAEKNNLSFIETSAL
Work on B34 yielded a protein stability index [1] of 2.72.

B35: PDLIM4 WT (peptide)
chain: FLDERLYCESHAKARVKPPEGYDV
With B35 the protein stability index (parent: IOH13881_50, c terminus: a fixed tail appended) was 1.92.

B36: WDFY2 WT (peptide)
chain: FWNFKQMWDSKKIGLRQHHCRKCG
Protein B36 has a protein stability index (parent: IOH13317_50, c terminus: a fixed tail appended) of 2.

B37: ZNF193 WT (peptide)
chain: QCIECGKSFNRHCNLIRHQKIHTV
In the case of B37, the protein stability index (parent: IOH12838_62, c terminus: a fixed tail appended) is reported as 3.73.

B38: DULLARD WT (peptide)
chain: LVVFTASMEIYGSAVADKLDNSRS
Protein B38 has a protein stability index (parent: IOH12711_22, c terminus: a fixed tail appended) of 2.76.

B39: SNX8 WT (peptide)
chain: RMVPALPPKRMLGADREFIEARRR
B39 gave a protein stability index (parent: IOH13259_22, c terminus: a fixed tail appended) of 3.67.

B40: TFE3 WT (peptide)
chain: FHLGLEDILMEEEEGVVGGLSGGA
Protein B40 has a protein stability index (parent: IOH14020_87, c terminus: a fixed tail appended) of 3.6.

B41: SMAD6 WT (peptide)
chain: SGLVRRLWRSRVVPDREEGGSGGG
For B41, the protein stability index (parent: IOH13078_2, c terminus: a fixed tail appended) was 4.12.

B42: LARP4 WT (peptide)
chain: WTVANMEEIKKLTTDPDLILEVLR
In the case of B42, the protein stability index (parent: IOH13489_15, c terminus: a fixed tail appended) is reported as 2.1.

B43: DYRK1B WT (peptide)
chain: KKVLNHGYDDDNHDYIVRSGERWL
B43 gave a protein stability index (parent: IOH14793_15, c terminus: a fixed tail appended) of 2.93.

B44: ANKRD40 WT (peptide)
chain: VRIQNPSLRENDFIEIELDRQELT
B44 gave a protein stability index (parent: IOH13159_45, c terminus: a fixed tail appended) of 2.38.

B45: TRIM9 WT (peptide)
chain: PRNSCITCPQCHRSLILDDRGLRG
B45 gave a protein stability index (parent: IOH12704_21, c terminus: a fixed tail appended) of 2.06.

B46: TFE3 WT (peptide)
chain: ELPNIKREISETEAKALLKERQKK
Work on B46 yielded a protein stability index (parent: IOH14020_55, c terminus: a fixed tail appended) of 2.4.

B47: GNB5 WT (peptide)
chain: DINSVRYYPSGDAFASGSDDATCR
Protein B47 has a protein stability index (parent: IOH14466_41, c terminus: a fixed tail appended) of 3.92.

B48: KRT33B WT (peptide)
chain: PAVDLNQVLNETRNQYEALVETNR
In the case of B48, the protein stability index (parent: IOH13096_37, c terminus: a fixed tail appended) is reported as 3.33.

B49: ANKRD40 WT (peptide)
chain: YQELLRVCCCELGVNPDQVEKIRK
With B49 the protein stability index (parent: IOH13159_49, c terminus: a fixed tail appended) was 2.07.

B50: STEAP1 WT (peptide)
chain: WMLTRKQFGLLSFFFAVLHAIYSL
B50 showed a protein stability index (parent: IOH13052_27, c terminus: a fixed tail appended) of 1.71.

B51: CD207 WT (peptide)
chain: MTVEKEAPDAHFTVDKQNISLWPR
Protein B51 has a protein stability index (parent: IOH12930_1, c terminus: a fixed tail appended) of 3.23.

B52: LRRC45 WT (peptide)
chain: DLSAANEKNLLLQNQVDELERKFR
In the case of B52, the protein stability index (parent: IOH13594_61, c terminus: a fixed tail appended) is reported as 4.05.

B53: ZC3H15 WT (peptide)
chain: RKADFKAGKALVISGREVFEFRPE
With B53 the protein stability index (parent: IOH14032_47, c terminus: a fixed tail appended) was 2.82.
